# Key:
# [1] = target: T1, purified EBV gp350/220 (recombinant EBV gp350 ectodomain) (Epstein-Barr virus, UniProt P03200); experiment: Indirect ELISA on recombinant EBV gp350 ectodomain; type: binding; settings: for ELISA binding to purified EBV gp350/220: purified antibodies 10 μg/ml; for ELISA binding strength to gp350, compared with m72A1 / parental antibody: soluble gp350 0.5 μg/ml
# T1 construct: purified EBV gp350 ectodomain protein (AA 4-863); purchased Immune Technology Corporation
# Protocol: Briefly, immunoplates (Costar 3590; Corning Incorporated) were coated with 50 μl of 0.5 μg/ml recombinant EBV gp350 ectodomain (Immune Technology Corporation) diluted in 1× phosphate buffered saline (PBS, pH 7.4) and incubated overnight at 4° C. After washing three times with 1×PBS containing 0.05% (v/v) Tween 20 (washing buffer), plates were blocked with 100 μl washing buffer containing 2% (w/v) bovine serum albumin (BSA) (blocking buffer) then incubated for 1 h at room temperature and washed as above. 100 μl of hybridoma supernatant or 50 μl of 10 μg/ml purified mAbs was added to each well (in triplicate) and incubated for 2 h at room temperature. […] The plates were washed as described above, followed by incubation with 50 μl of goat anti-mouse IgG HRP-conjugated secondary antibody (1:2,000 diluted in 1×PBS) at room temperature for 1 h. The plates were washed again and 100 μl of chromogenic substrate 2,2′-azino-bis (3-ethylbenzothiazoline-6-sulphonic acid) (ABTS, Life Science Technologies) was added. The reaction was stopped using 100 μl of ABTS peroxidase stop solution containing 5% sodium dodecyl sulfate (SDS) in water. The absorbance was read at an optical density of 405 nm using an ELISA reader (Molecular Devices). All experiments were performed in triplicate and confirmed in three independent experiments.
# ELISA binding of anti-gp350 and anti-gH/gL to soluble gp350 and gH/gL proteins was performed. Soluble EBV gp350 and gH/gL proteins were used as the target antigen at 0.5 μg/ml. 1× phosphate buffered saline (PBS) was used as negative (not shown) control. Bound antibodies were detected using HRP-conjugated anti-mouse or anti-human IgG (1:2,000).
# [2] = test system: EBV-eGFP infection of Raji cells; experiment: EBV neutralization assay in Raji cells; type: cell-based, Epstein-Barr virus; settings: for neutralization of EBV in Raji cells (in words): spin-column purified mAbs, 12.5, 25, 50 and 100 μg/ml
# Protocol: EBV neutralization assay was performed in Raji cells as previously described (47). Briefly, purified individual anti-gp350 mAbs were incubated with purified AGS-EBV-eGFP (titer calculated to infect at least 8% of HEK293 cells seeded in 100 μl of serum-free DMEM) for 2 hours at 37° C. To represent EBV infection of B cells, the pre-incubated anti-gp350 mAbs/AGS-EBV-eGFP were used to infect 5×10^5 Raji cells seeded in a 96-well plate for 2 hours at 37° C. Neutralizing 72A1 and non-neutralizing 2L10 anti-gp350 mAbs served as positive and negative controls, respectively. Infected cells were washed three times with PBS to remove any unbound viruses and antibodies. Washed, infected cells were incubated in 96-well plates at 37° C. for 48 hours post-infection and the number of eGFP+ (infected) cells was determined using flow cytometry. All dilutions were performed in quintuplicate and the assays were repeated three times. Antibody EBV neutralization activity was calculated as: % neutralization=(EBValone−EBVmAb)/(EBValone)×100.
# However, this antibody was recently reported to be a mixture of both functional and non-functional antibodies (50). […] The percentage of eGFP+ cells (percent infection) was determined using flow cytometry as described (47). The nAbs 72A1 and E1D1 were used as positive controls, whereas the anti-gp350 non-neutralizing mAb 2L10 and KSHV gH/gL mAb 54A1 were used as negative controls. Because HB4, HB13, HB15, HB16, HB19, HB21, and HB23 were confirmed to be polyclonal based on isotyping and/or sequence data, they were eliminated from further consideration in the neutralization assay. HB18 was not used in neutralization experiments because it was identical to HB8.
# The purified eGFP-tagged-EBV was titered in Raji cells to determine percent EBV infection using a range of volumes (50-250 μl) (FIG. 5A). Then initial neutralization of EBV was conducted in Raji cells using purified mAbs at various concentrations (12.5, 25, 50, and 100 μg/ml).
# EBV-eGFP+ cells were enumerated using flow cytometry.
# [3] = target: T2, EBV gp350 stably expressed on CHO cells (Epstein-Barr virus, UniProt P03200); experiment: Epitope mapping by competitive cell binding assay with biotinylated mAbs
# T2 construct: stably co-transfected with full-length pCAGGS-gp350/220 and pCI-puro vector; expressed in transfected cells; host or cells: CHO cells
# T2 sequence (P03200 whole entry): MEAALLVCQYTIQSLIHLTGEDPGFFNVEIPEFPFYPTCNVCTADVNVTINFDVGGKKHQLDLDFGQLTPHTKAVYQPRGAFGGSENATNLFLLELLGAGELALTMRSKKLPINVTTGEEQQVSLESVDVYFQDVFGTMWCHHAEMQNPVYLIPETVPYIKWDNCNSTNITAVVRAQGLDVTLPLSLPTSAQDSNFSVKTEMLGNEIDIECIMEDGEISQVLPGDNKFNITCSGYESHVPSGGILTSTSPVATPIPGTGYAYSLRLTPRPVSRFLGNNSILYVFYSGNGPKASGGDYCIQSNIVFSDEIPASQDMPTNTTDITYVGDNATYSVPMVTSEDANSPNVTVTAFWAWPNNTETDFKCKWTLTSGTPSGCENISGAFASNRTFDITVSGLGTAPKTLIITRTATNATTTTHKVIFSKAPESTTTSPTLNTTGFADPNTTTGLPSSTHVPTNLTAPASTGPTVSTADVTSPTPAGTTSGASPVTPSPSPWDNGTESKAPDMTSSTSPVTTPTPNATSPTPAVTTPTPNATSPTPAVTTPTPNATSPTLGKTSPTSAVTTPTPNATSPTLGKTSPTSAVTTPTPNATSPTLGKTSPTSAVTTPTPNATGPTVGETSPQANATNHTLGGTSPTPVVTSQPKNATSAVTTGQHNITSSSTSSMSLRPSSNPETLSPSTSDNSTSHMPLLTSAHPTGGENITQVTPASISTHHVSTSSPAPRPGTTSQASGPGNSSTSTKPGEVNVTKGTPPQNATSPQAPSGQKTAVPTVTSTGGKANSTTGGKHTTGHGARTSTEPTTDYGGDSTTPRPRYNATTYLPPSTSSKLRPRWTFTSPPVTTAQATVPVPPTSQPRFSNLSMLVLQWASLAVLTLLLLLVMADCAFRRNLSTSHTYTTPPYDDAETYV
# Protocol: To evaluate conformation epitope mapping of the selected mAbs, competitive binding assays were conducted using biotinylated mAbs. A one-step antibody biotinylation kit (MACS Miltenyi Biotec) was used to biotinylate the mAbs. Approximately 1×10^5 CHO cells that stably expressed EBV gp350 were incubated for 2 hours with serially diluted ([…]) unlabeled competitor mAbs and non-specific anti-KSHV gH/gL 54A1 mAb. After being washed with PBS, the cells were incubated for 2 hours in the presence of 1 μg/ml biotinylated mAbs. To determine maximum binding, cells in which the biotinylated mAb was added in the absence of unlabeled mAbs were included in the assay. Cells were washed with PBS, followed by incubation for 1 hour with anti-biotin AF488 at a dilution of 1:500. After the final wash in PBS, cells were resuspended in 1% paraformaldehyde and analyzed by flow cytometry as described above. Percentage of inhibition was calculated as: 100−[(% fluorescent cells with competitor mAb/% fluorescent cells without competitor mAb)×100]. The complete prevention of binding of a biotinylated mAb by its unlabeled counterpart was used as a validation of the assay, as previously described (84).
# At least seven unique CD21 binding epitopes on EBV gp350 have been predicted (Table 3).
# T1 sequence (P03200 4-863): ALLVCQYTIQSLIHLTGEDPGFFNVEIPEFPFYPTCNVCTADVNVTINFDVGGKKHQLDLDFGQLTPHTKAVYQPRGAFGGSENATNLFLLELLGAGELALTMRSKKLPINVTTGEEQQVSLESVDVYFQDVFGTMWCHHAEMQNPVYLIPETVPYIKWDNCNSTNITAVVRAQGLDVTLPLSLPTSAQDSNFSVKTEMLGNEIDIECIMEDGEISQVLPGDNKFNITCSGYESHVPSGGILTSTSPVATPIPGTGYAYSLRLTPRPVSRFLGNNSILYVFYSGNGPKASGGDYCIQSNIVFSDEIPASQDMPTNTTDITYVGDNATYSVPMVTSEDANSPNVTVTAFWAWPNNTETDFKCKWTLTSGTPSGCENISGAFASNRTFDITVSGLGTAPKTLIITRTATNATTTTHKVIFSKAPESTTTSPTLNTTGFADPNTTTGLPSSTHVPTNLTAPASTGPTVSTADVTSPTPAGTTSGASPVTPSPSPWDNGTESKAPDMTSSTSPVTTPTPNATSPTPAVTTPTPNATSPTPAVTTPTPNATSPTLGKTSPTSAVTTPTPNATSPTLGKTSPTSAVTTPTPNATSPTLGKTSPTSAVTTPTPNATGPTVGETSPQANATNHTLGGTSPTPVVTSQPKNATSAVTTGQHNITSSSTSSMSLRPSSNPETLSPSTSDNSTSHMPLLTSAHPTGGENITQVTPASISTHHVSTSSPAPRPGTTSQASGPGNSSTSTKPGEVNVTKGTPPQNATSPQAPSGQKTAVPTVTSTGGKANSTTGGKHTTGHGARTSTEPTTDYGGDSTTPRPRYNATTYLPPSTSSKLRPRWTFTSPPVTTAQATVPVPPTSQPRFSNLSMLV
Molecule,ELISA binding to purified EBV gp350/220 [1],"ELISA binding strength to gp350, compared with m72A1 / parental antibody [1]",neutralization of EBV in Raji cells (in words) [2],also measured
"HB14: murine anti-EBV gp350 mAb, IgG1 κ; SEQ ID NO: 124 / 125 (antibody, V domains shown, heavy chain mAb HB14; light chain mAb HB14) VH: SGAELVRPGASVNLSCKALGYTFTDYEMHWVKQTPVYGLEWIGTIHPRRGGTAYNQRFKGKAALTADKSSSTAYMELSSLTSEDSAVYYCARYGYPWYFDVWGAGTTVTVSS VL: LSLPVSLGDQASISCRSSQSIVHDNGNTYLEWYLQKPGQSPKLLIYKVSNRFSGVLDKFSGSGSGTDFTLKISRVEAEDLGIYYCFQGSHVPPTFGGGTKLEIK",+,"equal to or greater than that of the positive control, m72A1",failed to neutralize EBV infection,
"HB7: murine anti-EBV gp350 mAb, IgG1 κ; SEQ ID NO: 112 / 113 (antibody, V domains shown, heavy chain mAb HB7; light chain mAb HB7) VH: AELVRPGASVKLSCKALGYTFTDYEMHWVKQTPVHGLEWIGTISPGRSGTAYNQKFKGKATLTADKSSRTAYMELNSLTSEDSAVYYCSRYGHPSYLDVWGAGTTVTVSSAKTTPPSVYPLAPGSAAQTNSMVTLG VL: KFMSTSVGDRVNITCKASQSVGNAVAWFQQKPGQSPKLLIYSASNRYTGIPDRFTGSGSGTDFTLTCNNMQSEDLADYFCQQYSSYPLTFGAGTKLELKRADAAPTV",+,"equal to or greater than that of the positive control, m72A1",failed to neutralize EBV infection,
"HB8: murine anti-EBV gp350 mAb, IgG1 κ; SEQ ID NO: 114 / 115; HB18 has identical VH and VL (antibody, V domains shown, heavy chain mAb HB8; light chain mAb HB8, murine anti-EBV gp350 mAb, IgG1 κ; HB18 has identical VH and VL) VH: PELKKPGETVKISCKASGYSFTNYGMNWVKQAPGKGLKWMGWINTYTGEPTYADDFKGRFAFSLETSASTAFLQINNLKNEDTATYLCARYYYGSVYSAWFAYWGQGTLVTVSAAKTTPPSVYPLAPGSAAQTNSMVTLG VL: LSLPVSLGDQASISCRSSQSIVHSNGNTYLEWYLQKAGQSPKLLIYKVSNRFSGVPDRFGGSGSGTDFTLKISRVEAEDLGVYYCFQGSHVPYTFGGGTKLEIKRADAAPTV",+,,failed to neutralize EBV infection,
"HB10: murine anti-EBV gp350 mAb, IgG1 κ; SEQ ID NO: 118 / 119; non-nAb (protein, heavy chain mAb HB10; light chain mAb HB10, murine anti-EBV gp350 mAb, IgG1 κ; non-nAb) chain 1: LSLPVSLGDQASISCRSSQSIVHSNGNTYLEWYLQKAGQSPKLLIYKVSNRFSGVPDRFGGSGSGTDFTLKISRVEAEDLGVYYCFQGSHVPYTFGGGTKLEIKRADAAPTV chain 2: SSLSASLGDRVTISCRASQDIGNYLNWYQQKPDGTVKLLIYYTSRLHSGVPSRFSGSGSGTDYSLTISNLEEEDIATYFCQQGNTLPPTFGGGTKLEIKRADAAPTV",+,,failed to neutralize EBV infection,"blocking of EBV infection of Raji cells (nAb activity) ([2]; protein G and size-exclusion chromatography-purified mAbs, highest concentration 100 μg/ml): < 50%; % inhibition of biotinylated nAbs (biotinylated m72A1) ([3]; unlabeled mAb 67.5 μg/ml, biotinylated m72A1 1 μg/ml): 13%; % inhibition of biotinylated nAbs (biotinylated m72A1) ([3]; unlabeled mAb 125 μg/ml, biotinylated m72A1 1 μg/ml): 16%; % inhibition of biotinylated nAbs (biotinylated m72A1) ([3]; unlabeled mAb 250 μg/ml, biotinylated m72A1 1 μg/ml): 14%; % inhibition of biotinylated nAbs (biotinylated m72A1) ([3]; unlabeled mAb 500 μg/ml, biotinylated m72A1 1 μg/ml): 12%"
"HB1: murine anti-EBV gp350 mAb, IgG1 κ; heavy chain SEQ ID NO: 102, light chain SEQ ID NO: 103; neutralizing (antibody, V domains shown, heavy chain mAb HB1; light chain mAb HB1, murine anti-EBV gp350 mAb, IgG1 κ; neutralizing) VH: PGLVAPSQSLSITCTVSGFLLTTYGVHWVRQPPGKGLEWLGVIWAGGSTNYNSALMSRLSINKDISKSQVFLKMNSLQTDDTAMYYCTRDRGYGYLYAMDYWGQGTSVTVSSAKTTPPSVYPLAPGSAAQTNSMVTLG VL: KFMSTSVGDRVSVTCKASQNVGTNVAWYQQKPGQSPKALIYSTSSRYTGVPDRFAGSGSGTDYTLTISNVQSEDLAEYFCQQYNTYPYTFGGGTRLDIKRADAAPTV",+,,dose-dependent neutralization,"blocking of EBV infection of Raji cells (in words) ([2]; protein G and size-exclusion chromatography-purified mAbs, 12.5-100 μg/ml): blocked EBV infection in a dose-dependent manner; competitive binding versus m72A1 and h72A1 (in words) ([3]; biotinylated antibodies): bound targets that overlapped with those of both m72A1 and h72A1; antigen binding competition with biotinylated m72A1 (in words) ([3]; biotinylated m72A1 1 μg/ml, unlabeled mAbs 500-67.5 μg/ml): Antigen binding competition was observed"
"HB6: murine anti-EBV gp350 mAb, IgG1 κ; SEQ ID NO: 110 / 111 (antibody, V domains shown, heavy chain mAb HB6; light chain mAb HB6) VH: PELRKPGETVKISCKASGYTFTDYSMHWVKQTPGKGLKWMGWINTRTGEPRYADDFKGRFAFSLETSASTAYLQINNLKNEDTATYFCAPYGYALDYWGQGTSVTVSSAKTTPPSVYPLAPGSAAQTNSMVTLG VL: AILSASPGEKVTMTCRATSSVNYMHWYQQKPGSSPKPWIYATSNLASGVPARFSGSGSGTSYSLTISRVEAEDAATYYCQQWSSNPPTFGAGTKLELKRADAAPTV",+,,failed to neutralize EBV infection,
